For the test, the target named is acetylcholine receptor. The test is described as follows: SPR, AchR immobilized on CM5 chip, peptide 10 uM. (In general: SPR reads the build-up and loss of mass on a sensor chip optically.)

B1: 6mer-1-384 (peptide)
peptide: RKVICK
B1 registered a Binding affinity (RU) of 148 RU.

B2: 6mer-1-382 (peptide)
peptide: KRQYTR
B2 displayed a Binding affinity (RU) of 139 RU.

B3: 6mer-1-767 (peptide)
peptide: KRTPDK
B3 came in with a Binding affinity (RU) of 18 RU.

B4: 6mer-1-764 (peptide)
peptide: RRNPFK
Take B4: the Binding affinity (RU) worked out at 24 RU.

B5: 6mer-1-383 (peptide)
peptide: RKRRTK
In turn, B5 yielded a Binding affinity (RU) of 148 RU.

B6: 6mer-1-389 (peptide)
peptide: RKLFCK
In turn, B6 registered a Binding affinity (RU) of 125 RU.

B7: 6mer-1-770 (peptide)
peptide: RKTNAR
B7 showed a Binding affinity (RU) of 29 RU.

B8: 6mer-1-758 (peptide)
peptide: KKYHHR
B8 displayed a Binding affinity (RU) of 33 RU.

B9: 6mer-1-388 (peptide)
peptide: RRLLQR
The molecule B9 showed a Binding affinity (RU) of 142 RU.

B10: 6mer-1-745 (peptide)
peptide: KKTMEK
For B10, the Binding affinity (RU) is 11 RU.

B11: 6mer-1-740 (peptide)
peptide: RKDNKR
B11: the Binding affinity (RU) is 26 RU.

B12: 6mer-1-394 (peptide)
peptide: KKVRRR
In turn, B12 registered a Binding affinity (RU) of 149 RU.

B13: 6mer-1-378 (peptide)
peptide: KRSLQK
B13: the Binding affinity (RU) turned out to be 153 RU.

B14: 6mer-1-755 (peptide)
peptide: RRANMR
Molecule B14 yielded a Binding affinity (RU) of 25 RU.

B15: 6mer-1-769 (peptide)
peptide: RKMPVK
For B15, the Binding affinity (RU) turned out to be 14 RU.

B16: 6mer-1-761 (peptide)
peptide: RKETFR
B16 returned a Binding affinity (RU) of 33 RU.

B17: 6mer-1-746 (peptide)
peptide: RKMSVK
B17 gave a Binding affinity (RU) of 24 RU.

B18: 6mer-1-772 (peptide)
peptide: KRNCAK
B18 showed a Binding affinity (RU) of 12 RU.

B19: 6mer-1-747 (peptide)
peptide: KKTMDR
In turn, B19 gave a Binding affinity (RU) of 24 RU.

B20: 6mer-1-737 (peptide)
peptide: RRKNAR
B20 yielded a Binding affinity (RU) of 27 RU.

B21: 6mer-1-377 (peptide)
peptide: KRWITR
Molecule B21 displayed a Binding affinity (RU) of 148 RU.

B22: 6mer-1-775 (peptide)
peptide: KKYPWR
In turn, B22 displayed a Binding affinity (RU) of 12 RU.

B23: 6mer-1-752 (peptide)
peptide: KRPTEK
Regarding B23, the Binding affinity (RU) is 16 RU.

B24: 6mer-1-396 (peptide)
peptide: KRQIQK
With B24, the Binding affinity (RU) was found to be 148 RU.

B25: 6mer-1-379 (peptide)
peptide: KRRISK
Molecule B25 showed a Binding affinity (RU) of 153 RU.

B26: 6mer-1-748 (peptide)
peptide: RKHNGR
On to B26, for which the Binding affinity (RU) was 24 RU.

B27: 6mer-1-397 (peptide)
peptide: KRLILR
B27: the Binding affinity (RU) was 125 RU.

B28: 6mer-1-751 (peptide)
peptide: RRTNFK
In the case of B28, the Binding affinity (RU) turned out to be 27 RU.

B29: 6mer-1-738 (peptide)
peptide: RKYHHR
B29: the Binding affinity (RU) came out at 25 RU.

B30: 6mer-1-771 (peptide)
peptide: KKMDIK
B30 displayed a Binding affinity (RU) of 17 RU.

B31: 6mer-1-766 (peptide)
peptide: RKCTIR
For B31, the Binding affinity (RU) is 15 RU.

B32: 6mer-1-391 (peptide)
peptide: RRQRCK
Regarding B32, the Binding affinity (RU) came out at 131 RU.

B33: 6mer-1-773 (peptide)
peptide: KRTEIR
As to B33, the Binding affinity (RU) worked out at 29 RU.

B34: 6mer-1-749 (peptide)
peptide: RKPHWR
As to B34, the Binding affinity (RU) worked out at 33 RU.

B35: 6mer-1-380 (peptide)
peptide: KRLQLR
Molecule B35 gave a Binding affinity (RU) of 121 RU.

B36: 6mer-1-736 (peptide)
peptide: KKATDK
Turning to B36, the Binding affinity (RU) is 15 RU.

B37: 6mer-1-392 (peptide)
peptide: RRVQTR
B37 showed a Binding affinity (RU) of 135 RU.

B38: 6mer-1-735 (peptide)
peptide: RKDKER
Consider B38, for which the Binding affinity (RU) worked out at 19 RU.

B39: 6mer-1-398 (peptide)
peptide: KKQYYR
On to B39, for which the Binding affinity (RU) is 137 RU.

B40: 6mer-1-762 (peptide)
peptide: KKTKAR
On to B40, for which the Binding affinity (RU) is 13 RU.

B41: 6mer-1-744 (peptide)
peptide: RKHEIK
Molecule B41 registered a Binding affinity (RU) of 31 RU.

B42: 6mer-1-756 (peptide)
peptide: RKAKMK
B42 came in with a Binding affinity (RU) of 33 RU.

B43: 6mer-1-757 (peptide)
peptide: RKDNEK
Take B43: the Binding affinity (RU) came out at 26 RU.

B44: 6mer-1-387 (peptide)
peptide: KKGRLR
In the case of B44, the Binding affinity (RU) came out at 148 RU.

B45: 6mer-1-401 (peptide)
peptide: RRLYCR
In turn, B45 had a Binding affinity (RU) of 127 RU.

B46: 6mer-1-400 (peptide)
peptide: KRWQTK
Molecule B46 had a Binding affinity (RU) of 123 RU.

B47: 6mer-1-386 (peptide)
peptide: RRSYQK
Consider B47, for which the Binding affinity (RU) was determined as 127 RU.

B48: 6mer-1-754 (peptide)
peptide: RKKKMK
With B48, the Binding affinity (RU) is 24 RU.

B49: 6mer-1-385 (peptide)
peptide: KRQVLR
B49: the Binding affinity (RU) was 127 RU.

B50: 6mer-1-733 (peptide)
peptide: KKKMFK
B50: the Binding affinity (RU) came to 21 RU.

B51: 6mer-1-741 (peptide)
peptide: RKEAGR
Molecule B51 registered a Binding affinity (RU) of 24 RU.

B52: 6mer-1-743 (peptide)
peptide: KKTMVR
B52 yielded a Binding affinity (RU) of 14 RU.

B53: 6mer-1-750 (peptide)
peptide: KRENIK
Regarding B53, the Binding affinity (RU) worked out at 33 RU.

B54: 6mer-1-760 (peptide)
peptide: KRMMVR
Take B54: the Binding affinity (RU) came to 21 RU.

B55: 6mer-1-393 (peptide)
peptide: KRLYYK
With B55, the Binding affinity (RU) worked out at 148 RU.

B56: 6mer-1-742 (peptide)
peptide: RRFHWR
For B56, the Binding affinity (RU) came to 14 RU.

B57: 6mer-1-759 (peptide)
peptide: RKMTWR
On to B57, for which the Binding affinity (RU) turned out to be 23 RU.

B58: 6mer-1-739 (peptide)
peptide: RKCCEK
With B58, the Binding affinity (RU) was determined as 32 RU.

B59: 6mer-1-763 (peptide)
peptide: RRDCAK
On to B59, for which the Binding affinity (RU) came out at 12 RU.

B60: 6mer-1-381 (peptide)
peptide: RKGFYR
B60 showed a Binding affinity (RU) of 124 RU.

B61: 6mer-1-375 (peptide)
peptide: RRVFYR
Turning to B61, the Binding affinity (RU) was 154 RU.

B62: 6mer-1-774 (peptide)
peptide: KKEMER
Take B62: the Binding affinity (RU) was 21 RU.

B63: 6mer-1-734 (peptide)
peptide: RRTHER
Regarding B63, the Binding affinity (RU) was 21 RU.

B64: 6mer-1-390 (peptide)
peptide: RKLQQR
For the molecule B64, the Binding affinity (RU) stood at 121 RU.

B65: 6mer-1-768 (peptide)
peptide: RKFEWK
The molecule B65 came in with a Binding affinity (RU) of 32 RU.

B66: 6mer-1-395 (peptide)
peptide: KKRQTK
Regarding B66, the Binding affinity (RU) was determined as 125 RU.

B67: 6mer-1-399 (peptide)
peptide: KRWILR
B67 showed a Binding affinity (RU) of 125 RU.

B68: 6mer-1-776 (peptide)
peptide: KKTSIK
With B68, the Binding affinity (RU) was determined as 13 RU.

B69: 6mer-1-753 (peptide)
peptide: KKDTHK
Molecule B69 came in with a Binding affinity (RU) of 12 RU.

B70: 6mer-1-765 (peptide)
peptide: KRASPK
Regarding B70, the Binding affinity (RU) came out at 25 RU.

B71: 6mer-1-376 (peptide)
peptide: RRQLRK
On to B71, for which the Binding affinity (RU) worked out at 121 RU.

(Values after patent publication US20250011363A1, “OPTIMIZED SHORTENED PEPTIDE THAT BINDS TO ACETYLCHOLINE RECEPTOR, AND USE THEREOF” (SKINMED CO., LTD., priority 2021, published 2025).)
